# Assay results taken from patent US20100130424A1 (Janssen / Centocor, published 2010).
# No end group written: not given here.
# T1: human CRH receptor type 2 (human, UniProt Q13324 1-411)
# T1 sequence (looked up): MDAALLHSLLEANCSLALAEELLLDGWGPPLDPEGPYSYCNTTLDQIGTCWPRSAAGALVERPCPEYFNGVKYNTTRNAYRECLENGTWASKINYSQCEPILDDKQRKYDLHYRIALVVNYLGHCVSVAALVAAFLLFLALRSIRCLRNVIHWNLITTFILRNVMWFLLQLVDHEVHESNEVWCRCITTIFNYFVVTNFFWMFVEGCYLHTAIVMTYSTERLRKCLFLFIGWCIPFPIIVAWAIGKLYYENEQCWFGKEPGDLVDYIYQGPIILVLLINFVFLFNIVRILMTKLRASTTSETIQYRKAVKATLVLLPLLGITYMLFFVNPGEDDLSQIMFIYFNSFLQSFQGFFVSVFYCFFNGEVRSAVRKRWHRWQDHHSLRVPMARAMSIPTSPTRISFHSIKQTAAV
# Target: T1, human CRH receptor type 2
# Experiment: cell-based or functional assay
Binder,"Log DR against h-SCP, cAMP [log10 ratio]","pA50, cAMP"
"TKFTLSLDVPTNIMNLLFNIAKAKNLCAQAAANAHLMAQI-NH2 [Cys-variant CRHR2 peptide agonist, SEQ ID NO: 28]",0.16,9.36 -log M
"TKFTLSLDVPTCIMNLLFNIAKAKNLRAQAAANAHLMAQI-NH2 [Cys-variant CRHR2 peptide agonist, SEQ ID NO: 13]",-0.01,9.59 -log M
"TKFTLSLDVPTNIMNLLFNIAKAKNCRAQAAANAHLMAQI-NH2 [Cys-variant CRHR2 peptide agonist, SEQ ID NO: 27]",0.76,8.76 -log M
"TKFTLSLDVPTNCMNLLFNIAKAKNLRAQAAANAHLMAQI-NH2 [Cys-variant CRHR2 peptide agonist, SEQ ID NO: 14]",> 2,~7.34 -log M
"TKFTLSLDVPTNIMNLLFNIAKAKNLRAQACANAHLMAQI-NH2 [Cys-variant CRHR2 peptide agonist, SEQ ID NO: 32]",0.11,9.41 -log M
"TKFTLSLDVPTNIMNLCFNIAKAKNLRAQAAANAHLMAQI-NH2 [Cys-variant CRHR2 peptide agonist, SEQ ID NO: 18]",1.11,8.41 -log M
"TKFTLSLDVPTNIMNLLFNIAKAKNLRAQCAANAHLMAQI-NH2 [Cys-variant CRHR2 peptide agonist, SEQ ID NO: 31]",1.61,8.02 -log M
"TKFTLSLDVPTNIMCLLFNIAKAKNLRAQAAANAHLMAQI-NH2 [Cys-variant CRHR2 peptide agonist, SEQ ID NO: 16]",0.76,8.93 -log M
"TKFTLSLDVPTNIMNLLFNICKAKNLRAQAAANAHLMAQI-NH2 [Cys-variant CRHR2 peptide agonist, SEQ ID NO: 22]",0.52,9.17 -log M
"TKFTLSLDVPTNIMNLLFNIAKAKCLRAQAAANAHLMAQI-NH2 [Cys-variant CRHR2 peptide agonist, SEQ ID NO: 26]",0.08,9.44 -log M
"TKFTLSLDVPTNIMNLLFNIACAKNLRAQAAANAHLMAQI-NH2 [Cys-variant CRHR2 peptide agonist, SEQ ID NO: 23]",1.13,8.55 -log M
"TKFTLSLDVPTNIMNLLFNCAKAKNLRAQAAANAHLMAQI-NH2 [Cys-variant CRHR2 peptide agonist, SEQ ID NO: 21]",0.77,8.75 -log M
"TKFTLSLDVPTNIMNLLFNIAKCKNLRAQAAANAHLMAQI-NH2 [Cys-variant CRHR2 peptide agonist, SEQ ID NO: 24]",0.74,8.94 -log M
"TKFTLSLDVPTNICNLLFNIAKAKNLRAQAAANAHLMAQI-NH2 [Cys-variant CRHR2 peptide agonist, SEQ ID NO: 15]",0.9,8.68 -log M
"TKFTLSLDVPTCIMNLLFNIAKAKNLRAQAAANAHLMAQI (NES-PEG (about 20 kDa) on Cys 12; C-terminal amide) [Pegylated Cys-variant CRHR2 peptide agonist (NES linker, PEG about 20 kDa), SEQ ID NO: 66]",1.26,8.31 -log M
"TKFTLSLDVPTNIMNLLFNIAKCKNLRAQAAANAHLMAQI (NES-PEG (about 20 kDa) on Cys 23; C-terminal amide) [Pegylated Cys-variant CRHR2 peptide agonist (NES linker, PEG about 20 kDa), SEQ ID NO: 77]",1.27,8.27 -log M
"TKFTLSLDVPTNIMNLCFNIAKAKNLRAQAAANAHLMAQI (NES-PEG (about 20 kDa) on Cys 17; C-terminal amide) [Pegylated Cys-variant CRHR2 peptide agonist (NES linker, PEG about 20 kDa), SEQ ID NO: 71]",~2.26,~7.35 -log M
"TKFTLSLDVPTNIMNLLFNIAKAKNLRAQCAANAHLMAQI (NES-PEG (about 20 kDa) on Cys 30; C-terminal amide) [Pegylated Cys-variant CRHR2 peptide agonist (NES linker, PEG about 20 kDa), SEQ ID NO: 84]",~2.84,~6.82 -log M
"TKFTLSLDVPTNIMNLLFNIAKAKNCRAQAAANAHLMAQI (NES-PEG (about 20 kDa) on Cys 26; C-terminal amide) [Pegylated Cys-variant CRHR2 peptide agonist (NES linker, PEG about 20 kDa), SEQ ID NO: 80]",1.75,7.6 -log M
"TKFTLSLDVPTNIMNLLFNIAKAKNLRCQAAANAHLMAQI (NES-PEG (about 20 kDa; MW20000) on Cys 28; C-terminal amide) [Pegylated Cys-variant CRHR2 peptide agonist (NES linker, PEG about 20 kDa), SEQ ID NO: 82]",1.12,8.4 -log M

Binder,"Log DR against h-SCP, cAMP [log10 ratio]","pA50, cAMP"
"TKFTLSLDVPTNIMNLLFNICKAKNLRAQAAANAHLMAQI (NES-PEG (about 20 kDa) on Cys 21; C-terminal amide) [Pegylated Cys-variant CRHR2 peptide agonist (NES linker, PEG about 20 kDa), SEQ ID NO: 75]",1.3,8.24 -log M
"TKFTLSLDVPTNIMNLLFNIAKAKNLRAQACANAHLMAQI (NES-PEG (about 20 kDa) on Cys 31; C-terminal amide) [Pegylated Cys-variant CRHR2 peptide agonist (NES linker, PEG about 20 kDa), SEQ ID NO: 85]",0.89,8.51 -log M
"TKFTLSLDVPTNIMNLLFNIAKAKNLCAQAAANAHLMAQI (NES-PEG (about 20 kDa) on Cys 27; C-terminal amide) [Pegylated Cys-variant CRHR2 peptide agonist (NES linker, PEG about 20 kDa), SEQ ID NO: 81]",1.82,7.83 -log M
"TKFTLSLDVPTNIMNLLFNIAKACNLRAQAAANAHLMAQI (NES-PEG (about 20 kDa) on Cys 24; C-terminal amide) [Pegylated Cys-variant CRHR2 peptide agonist (NES linker, PEG about 20 kDa), SEQ ID NO: 78]",~1.52,~7.89 -log M
"TKFTLSLDVPTNIMNCLFNIAKAKNLRAQAAANAHLMAQI (NES-PEG (about 20 kDa) on Cys 16; C-terminal amide) [Pegylated Cys-variant CRHR2 peptide agonist (NES linker, PEG about 20 kDa), SEQ ID NO: 70]",~2.07,~7.34 -log M
"TKFTLSLDVPTNIMNLLFNIACAKNLRAQAAANAHLMAQI (NES-PEG (about 20 kDa) on Cys 22; C-terminal amide) [Pegylated Cys-variant CRHR2 peptide agonist (NES linker, PEG about 20 kDa), SEQ ID NO: 76]",2.7,6.84 -log M
"TKFTLSLDVPTNICNLLFNIAKAKNLRAQAAANAHLMAQI (NES-PEG (about 20 kDa) on Cys 14; C-terminal amide) [Pegylated Cys-variant CRHR2 peptide agonist (NES linker, PEG about 20 kDa), SEQ ID NO: 68]",~2.61,~6.96 -log M
"TKFTLSLDVPTNIMCLLFNIAKAKNLRAQAAANAHLMAQI (NES-PEG (about 20 kDa) on Cys 15; C-terminal amide) [Pegylated Cys-variant CRHR2 peptide agonist (NES linker, PEG about 20 kDa), SEQ ID NO: 69]",2.09,7.45 -log M
"TKFTLSLDVPTNIMNLLFNIAKAKCLRAQAAANAHLMAQI (NES-PEG (about 20 kDa) on Cys 25; C-terminal amide) [Pegylated Cys-variant CRHR2 peptide agonist (NES linker, PEG about 20 kDa), SEQ ID NO: 79]",1.11,8.5 -log M
"TKFTLSLDVPTNIMNLLCNIAKAKNLRAQAAANAHLMAQI (NES-PEG (about 20 kDa) on Cys 18; C-terminal amide) [Pegylated Cys-variant CRHR2 peptide agonist (NES linker, PEG about 20 kDa), SEQ ID NO: 72]",1.5,8.04 -log M
"TKFTLSLDVPTNCMNLLFNIAKAKNLRAQAAANAHLMAQI (NES-PEG (about 20 kDa) on Cys 13; C-terminal amide) [Pegylated Cys-variant CRHR2 peptide agonist (NES linker, PEG about 20 kDa), SEQ ID NO: 67]",> 3,~6.35 -log M
"TKFTLSLDVPTNIMNLLFNIAKAKNLRACAAANAHLMAQI (NES-PEG (about 20 kDa) on Cys 29; C-terminal amide) [Pegylated Cys-variant CRHR2 peptide agonist (NES linker, PEG about 20 kDa), SEQ ID NO: 83]",1.63,7.91 -log M
"TKFTLSLDVPTNIMNLLFNCAKAKNLRAQAAANAHLMAQI (NES-PEG (about 20 kDa) on Cys 20; C-terminal amide) [Pegylated Cys-variant CRHR2 peptide agonist (NES linker, PEG about 20 kDa), SEQ ID NO: 74]",~2.28,~7.33 -log M
"TKFTLSLDVPTNIMNLLFCIAKAKNLRAQAAANAHLMAQI (NES-PEG (about 20 kDa) on Cys 19; C-terminal amide) [Pegylated Cys-variant CRHR2 peptide agonist (NES linker, PEG about 20 kDa), SEQ ID NO: 73]",1.11,8.29 -log M
"TKFTLSLDVPTNIMNLLFNIAKAKNLRACAAANAHLMAQI-NH2 [Cys-variant CRHR2 peptide agonist, SEQ ID NO: 30]",1.28,8.4 -log M
"TKFTLSLDVPTNIMNLLCNIAKAKNLRAQAAANAHLMAQI-NH2 [Cys-variant CRHR2 peptide agonist, SEQ ID NO: 19]",1.67,8.01 -log M
"TKFTLSLDVPTNIMNLLFCIAKAKNLRAQAAANAHLMAQI-NH2 [Cys-variant CRHR2 peptide agonist, SEQ ID NO: 20]",0.52,9 -log M
"TKFTLSLDVPTNIMNLLFNIAKAKNLRCQAAANAHLMAQI-NH2 [Cys-variant CRHR2 peptide agonist, SEQ ID NO: 29]",0,9.47 -log M
"TKFTLSLDVPTNIMNLLFNIAKACNLRAQAAANAHLMAQI-NH2 [Cys-variant CRHR2 peptide agonist, SEQ ID NO: 25]",0.35,9.17 -log M
"TKFTLSLDVPTNIMNCLFNIAKAKNLRAQAAANAHLMAQI-NH2 [Cys-variant CRHR2 peptide agonist, SEQ ID NO: 17]",0.02,9.5 -log M
